The record followed here is patent US20140087995A1 (published 2014).

Numbered stars: 1 amine (or outer) side, 2 acyl side, 3 side chain; on linkers, the order of the positions; unused ones are H or OH. Bridge positions count the residues as written; N and C are the ends. Side chains are listed from the residue outwards. Ends that are not written are not given here. * marks the point of attachment. C20 diacid = O=C(O)CCCCCCCCCCCCCCCCCCC(=O)*; γGlu = O=C(O)[C@H](CCC(=O)[*:2])N[*:1]

T1: human calcitonin receptor (human, UniProt P30988 25-474)
T1 construct: whole, on cells; Used as membranes prepared from the transfected cells (Assay VII); also called hCTR; hCT
T1 sequence (looked up): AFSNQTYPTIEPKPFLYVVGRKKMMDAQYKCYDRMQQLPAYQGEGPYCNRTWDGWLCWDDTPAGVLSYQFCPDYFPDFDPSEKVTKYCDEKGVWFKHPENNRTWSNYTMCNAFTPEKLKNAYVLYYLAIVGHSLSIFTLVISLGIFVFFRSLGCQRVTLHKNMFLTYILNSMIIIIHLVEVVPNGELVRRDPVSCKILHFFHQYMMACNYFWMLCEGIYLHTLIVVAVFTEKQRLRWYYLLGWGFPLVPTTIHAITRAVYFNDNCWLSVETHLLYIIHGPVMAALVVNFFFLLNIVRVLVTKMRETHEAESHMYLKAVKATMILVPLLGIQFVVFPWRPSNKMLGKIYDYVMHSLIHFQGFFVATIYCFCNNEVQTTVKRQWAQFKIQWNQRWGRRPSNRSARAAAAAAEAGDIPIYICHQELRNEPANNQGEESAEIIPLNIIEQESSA

B1: N^α1 N^α1-[(4S)-4-carboxy-4-[[(4S)-4-carboxy-4-(19-carboxynonadecanoylamino)butanoyl]amino]butanoyl]-[Glu14,Arg17,Pro21,Pro27]-h-amylin (peptide)
peptide: {C20 diacid-γGlu-γGlu}-KCNTATCATQRLAEFLRHSSPNFGAIPSSTNVGSNTY-NH2
modifications: disulfide 2-7
SMILES: CC[C@H](C)[C@H](NC(=O)[C@H](C)NC(=O)CNC(=O)[C@H](Cc1ccccc1)NC(=O)[C@H](CC(N)=O)NC(=O)[C@@H]1CCCN1C(=O)[C@H](CO)NC(=O)[C@H](CO)NC(=O)[C@H](Cc1c[nH]cn1)NC(=O)[C@H](CCCNC(=N)N)NC(=O)[C@H](CC(C)C)NC(=O)[C@H](Cc1ccccc1)NC(=O)[C@H](CCC(=O)O)NC(=O)[C@H](C)NC(=O)[C@H](CC(C)C)NC(=O)[C@H](CCCNC(=N)N)NC(=O)[C@H](CCC(N)=O)NC(=O)[C@@H](NC(=O)[C@H](C)NC(=O)[C@@H]1CSSC[C@H](NC(=O)[C@H](CCCCN)NC(=O)CC[C@H](NC(=O)CC[C@H](NC(=O)CCCCCCCCCCCCCCCCCCC(=O)O)C(=O)O)C(=O)O)C(=O)N[C@@H](CC(N)=O)C(=O)N[C@@H]([C@@H](C)O)C(=O)N[C@@H](C)C(=O)N[C@@H]([C@@H](C)O)C(=O)N1)[C@@H](C)O)C(=O)N1CCC[C@H]1C(=O)N[C@@H](CO)C(=O)N[C@@H](CO)C(=O)N[C@H](C(=O)N[C@@H](CC(N)=O)C(=O)N[C@H](C(=O)NCC(=O)N[C@@H](CO)C(=O)N[C@@H](CC(N)=O)C(=O)N[C@H](C(=O)N[C@@H](Cc1ccc(O)cc1)C(N)=O)[C@@H](C)O)C(C)C)[C@@H](C)O
notes: Derivative of human amylin; also called compound 15
B2: N^α1-[(4S)-4-carboxy-4-(19-carboxynonadecanoylamino)butanoyl]-[Glu14,Arg17,Pro21,Pro27]-h-amylin (peptide)
peptide: KCNTATCATQRLAEFLRHSSPNFGAIPSSTNVGSNTY
modifications: C20 diacid-gGlu acylated on the alpha amino group of the N-terminal residue (Lys 1); disulfide Cys2-Cys7; C-terminal amide
notes: Derivative of human amylin; also called compound 9
B3: N^ε1-[(4S)-4-carboxy-4-[[(4S)-4-carboxy-4-(19-carboxynonadecanoylamino)butanoyl]amino]butanoyl]-[Glu14,Arg17,Pro21,Pro27,Pro37]-h-amylin (peptide)
peptide: K([γGlu-γGlu-C20 diacid])CNTATCATQRLAEFLRHSSPNFGAIPSSTNVGSNTP-NH2
modifications: disulfide 2-7 (inferred)
notes: Derivative of human amylin; also called compound 13
B4: N^α1-[(4S)-4-carboxy-4-(19-carboxynonadecanoylamino)butanoyl]-[Asp14,Arg17,Pro21,Pro27,Pro37]-h-amylin (peptide)
peptide: {C20 diacid-γGlu}-KCNTATCATQRLADFLRHSSPNFGAIPSSTNVGSNTP-NH2
modifications: disulfide 2-7
SMILES: CC[C@H](C)[C@H](NC(=O)[C@H](C)NC(=O)CNC(=O)[C@H](Cc1ccccc1)NC(=O)[C@H](CC(N)=O)NC(=O)[C@@H]1CCCN1C(=O)[C@H](CO)NC(=O)[C@H](CO)NC(=O)[C@H](Cc1c[nH]cn1)NC(=O)[C@H](CCCNC(=N)N)NC(=O)[C@H](CC(C)C)NC(=O)[C@H](Cc1ccccc1)NC(=O)[C@H](CC(=O)O)NC(=O)[C@H](C)NC(=O)[C@H](CC(C)C)NC(=O)[C@H](CCCNC(=N)N)NC(=O)[C@H](CCC(N)=O)NC(=O)[C@@H](NC(=O)[C@H](C)NC(=O)[C@@H]1CSSC[C@H](NC(=O)[C@H](CCCCN)NC(=O)CC[C@H](NC(=O)CCCCCCCCCCCCCCCCCCC(=O)O)C(=O)O)C(=O)N[C@@H](CC(N)=O)C(=O)N[C@@H]([C@@H](C)O)C(=O)N[C@@H](C)C(=O)N[C@@H]([C@@H](C)O)C(=O)N1)[C@@H](C)O)C(=O)N1CCC[C@H]1C(=O)N[C@@H](CO)C(=O)N[C@@H](CO)C(=O)N[C@H](C(=O)N[C@@H](CC(N)=O)C(=O)N[C@H](C(=O)NCC(=O)N[C@@H](CO)C(=O)N[C@@H](CC(N)=O)C(=O)N[C@H](C(=O)N1CCC[C@H]1C(N)=O)[C@@H](C)O)C(C)C)[C@@H](C)O
notes: Derivative of human amylin; also called compound 10
B5: N^α1-[(4S)-4-carboxy-4-[[(4S)-4-carboxy-4-(19-carboxynonadecanoylamino)butanoyl]amino]butanoyl]-[Glu14,Arg17,Pro21,Pro27,Pro37]-h-amylin (peptide)
peptide: {C20 diacid-γGlu-γGlu}-KCNTATCATQRLAEFLRHSSPNFGAIPSSTNVGSNTP-NH2
modifications: disulfide 2-7
SMILES: CC[C@H](C)[C@H](NC(=O)[C@H](C)NC(=O)CNC(=O)[C@H](Cc1ccccc1)NC(=O)[C@H](CC(N)=O)NC(=O)[C@@H]1CCCN1C(=O)[C@H](CO)NC(=O)[C@H](CO)NC(=O)[C@H](Cc1c[nH]cn1)NC(=O)[C@H](CCCNC(=N)N)NC(=O)[C@H](CC(C)C)NC(=O)[C@H](Cc1ccccc1)NC(=O)[C@H](CCC(=O)O)NC(=O)[C@H](C)NC(=O)[C@H](CC(C)C)NC(=O)[C@H](CCCNC(=N)N)NC(=O)[C@H](CCC(N)=O)NC(=O)[C@@H](NC(=O)[C@H](C)NC(=O)[C@@H]1CSSC[C@H](NC(=O)[C@H](CCCCN)NC(=O)CC[C@H](NC(=O)CC[C@H](NC(=O)CCCCCCCCCCCCCCCCCCC(=O)O)C(=O)O)C(=O)O)C(=O)N[C@@H](CC(N)=O)C(=O)N[C@@H]([C@@H](C)O)C(=O)N[C@@H](C)C(=O)N[C@@H]([C@@H](C)O)C(=O)N1)[C@@H](C)O)C(=O)N1CCC[C@H]1C(=O)N[C@@H](CO)C(=O)N[C@@H](CO)C(=O)N[C@H](C(=O)N[C@@H](CC(N)=O)C(=O)N[C@H](C(=O)NCC(=O)N[C@@H](CO)C(=O)N[C@@H](CC(N)=O)C(=O)N[C@H](C(=O)N1CCC[C@H]1C(N)=O)[C@@H](C)O)C(C)C)[C@@H](C)O
notes: Derivative of human amylin; also called compound 14
B6: N^α1-[(4S)-4-carboxy-4-(19-carboxynonadecanoylamino)butanoyl]-[Glu14,Arg17,Pro21,Pro27,Asp35,Pro37]-h-amylin (peptide)
peptide: {C20 diacid-γGlu}-KCNTATCATQRLAEFLRHSSPNFGAIPSSTNVGSDTP-NH2
modifications: disulfide 2-7
SMILES: CC[C@H](C)[C@H](NC(=O)[C@H](C)NC(=O)CNC(=O)[C@H](Cc1ccccc1)NC(=O)[C@H](CC(N)=O)NC(=O)[C@@H]1CCCN1C(=O)[C@H](CO)NC(=O)[C@H](CO)NC(=O)[C@H](Cc1c[nH]cn1)NC(=O)[C@H](CCCNC(=N)N)NC(=O)[C@H](CC(C)C)NC(=O)[C@H](Cc1ccccc1)NC(=O)[C@H](CCC(=O)O)NC(=O)[C@H](C)NC(=O)[C@H](CC(C)C)NC(=O)[C@H](CCCNC(=N)N)NC(=O)[C@H](CCC(N)=O)NC(=O)[C@@H](NC(=O)[C@H](C)NC(=O)[C@@H]1CSSC[C@H](NC(=O)[C@H](CCCCN)NC(=O)CC[C@H](NC(=O)CCCCCCCCCCCCCCCCCCC(=O)O)C(=O)O)C(=O)N[C@@H](CC(N)=O)C(=O)N[C@@H]([C@@H](C)O)C(=O)N[C@@H](C)C(=O)N[C@@H]([C@@H](C)O)C(=O)N1)[C@@H](C)O)C(=O)N1CCC[C@H]1C(=O)N[C@@H](CO)C(=O)N[C@@H](CO)C(=O)N[C@H](C(=O)N[C@@H](CC(N)=O)C(=O)N[C@H](C(=O)NCC(=O)N[C@@H](CO)C(=O)N[C@@H](CC(=O)O)C(=O)N[C@H](C(=O)N1CCC[C@H]1C(N)=O)[C@@H](C)O)C(C)C)[C@@H](C)O
notes: Derivative of human amylin; also called compound 11
B7: N^α1-[(4S)-4-carboxy-4-(19-carboxynonadecanoylamino)butanoyl]-[Glu14,Arg17,Pro21,Pro27,Pro37]-h-amylin (peptide)
peptide: {C20 diacid-γGlu}-KCNTATCATQRLAEFLRHSSPNFGAIPSSTNVGSNTP-NH2
modifications: disulfide 2-7
notes: Derivative of human amylin; also called compound 8

The target in the assay is T1, human calcitonin receptor. Description: ratio IC50 human calcitonin receptor / IC50 human amylin receptor (Assays VII and V). On the procedure: The resulting pellet was resuspended, homogenized and centrifuged (20.000 rpm, 15 min) in a buffer containing 20 mM Na-HEPES and 0.1 mM EDTA (pH 7.4, buffer 2). The resulting pellet was resuspended in buffer 2 and protein concentration was measured (BCA protein Assay, Pierce). The homogenate was kept cold during the whole procedure. The membranes were kept at −80° C. until use. The assay was performed in a 384 well Optiplate (PerkinElmer) in a total volume of 40 ul. Membranes were mixed with SPA beads. Final concentration of membranes 35 ng/μL final and SPA beads was 0.05 mg/well. Test-compounds were dissolved in DMSO and further diluted in assay buffer (50 mM Hepes, pH 7.4, 1 mM CaCl2, 5 mM MgCl₂, 0.1% OA and 0.02% Tween20). […] The final mixture was incubated with shaking at 400 rpm for 120 min at 25° C. prior to centrifugation (1500 rpm, 10 min). Samples were analyzed on TopCounter™ (Packard). The IC₅₀ was calculated using (one site binding competition analysis) GraphPad Prism5 as a measure of receptor affinity.
Membranes were prepared in the following way; the cells were rinsed with PBS and incubated with Versene for approximately 5 min before harvesting. The cells were flushed with PBS and the cell-suspension was centrifuged for 5 min at 1000 rpm. Cells were homogenized (Ultrathurrax) in a buffer containing 20 mM Na-HEPES and 10 mM EDTA (pH 7.4) and centrifuged at 20.000 rpm for 15 min. The resulting pellet was resuspended, homogenized and centrifuged (20.000 rpm, 15 min) in a buffer containing 20 mM Na-HEPES and 0.1 mM EDTA (pH 7.4, buffer 2). The resulting pellet was resuspended in buffer 2 and protein concentration was measured (BCA protein Assay, Pierce). The homogenate was kept cold during the whole procedure. The membranes were kept at −80° C. until use. Assay was performed in a 384 well Optiplate (PerkinElmer) in a total volume of 40 ul. Membranes were mixed with SPA beads.
For the molecule B1, the “Ratio hCT/hAmylin binding” value amounted to 26.

With B2, the “Ratio hCT/hAmylin binding” value is 8.

On to B3, for which the “Ratio hCT/hAmylin binding” value is 1.2.

Take B4: the “Ratio hCT/hAmylin binding” value was 1.2.

With B5, the “Ratio hCT/hAmylin binding” value was 2.2.

On to B6, for which the “Ratio hCT/hAmylin binding” value was 1.

With B7, the “Ratio hCT/hAmylin binding” value was found to be 0.5.
